In data set [1] the target is Drp6-4A (Drp6 GKFR-AAAA), N-terminal His6 tag (Tetrahymena thermophila) (UniProt Q38KF5). Put plainly: SEC.
The target is the same in data set [2].
The data set “SEC” deals with the molecule itself. The data set can be described thus: SEC.

Values joined by “and” are separate entries in the source; they are usually repeats but may differ in a detail not shown here. Equal values may be shown once.

This note sets out measurements from paper doi:10.1101/2025.02.19.639038 (bioRxiv, 2025).

In data set [1], “Drp6-4A (Drp6 GKFR-AAAA), N-terminal His6 tag (from UniProt Q38KF5 1-710) (natural protein)” yielded a percent eluted in the tetramer peak (peak2) of 19% and a stoichiometry N of 4. The GTP hydrolysis rate (colorimetric Pi release, 1 μM protein, 1 mM GTP) in data set [2] amounted to 0.83 μM /μM/min.

B1: Dynamin-related protein 6 (Drp6), wild type, N-terminal His6 tag (natural protein, Tetrahymena thermophila, UniProt Q38KF5 1-710, looked up)
chain: MTNTIVPANNFQNIKEVIKVVNKLRDFGIESDKIQLPKIVVIGVQSSGKSSLLEQIVQLDFLPRGTGVVTRCPLEIRLIEVTNQDSDFKPYAYFFEERQKIFHDFELVKKEIQKITNDFAGPGKKIVDKVITLTIYQAQCPTLTLIDLPGMTLNSVGDQKDIERVTQDMTKKYIIEKTTIILCVIPINQDLENSLALNLARSVDENGERTIGVLTMIDIMNPGTNCENVLKNRQIPLLHRYYGMKPRSQKDINENVSVQEAIQREQLYFTSHQIYSMYPEYTGTNALTNKLSTLLDSHIRTFLPSIHKKIKMTLSERIKERQQLGNEFPTEVTQQLYELTNIINTSLNLFKQAMTNYDASEIQNIGKIKVDERVGKSYADFLFDKYLLICKKISEEQVFKVKMKDLIKELGKFRVQVNGFLPFEVFESQIKQKINLYETEAIVILEQLKEHVRKVLNHCIDLFPFPNNKIKKIMQDILQNFVQTEYNFTSSHIKTAFYCYKDCICSKMIDIHETESKLKQNHVYLQNDNQQKKVLYEYISKNKSFMEWTVQEIMIKAENLCNVPITMSDLQNTYTKAEEKVQNTDEVLRYSIIYYKYMDNFRKQISDQIPQCIQSLFINSLCKNLMVKVFQAIQSKEYKEIIEKNLKEDEIIATKRAKVIQSIQKLAKANDRLERLIDQGQNCNHMLSTTYGDEENYIHESLEDSDGIDD
Consider B1, for which, in the data set “SEC”, the “stoichiometry N” value was ≥ 6 protomers and 4.
